This passage reports Kd results from article PMC5760745, “Nuclear, Cytosolic, and Surface-Localized Poly(A)-Binding Proteins of Plasmodium yoelii”.

The target in data set [1] is T1, PyPABP2 (Plasmodium yoelii, UniProt UPI0004EF7F20 1-199).
T1 sequence: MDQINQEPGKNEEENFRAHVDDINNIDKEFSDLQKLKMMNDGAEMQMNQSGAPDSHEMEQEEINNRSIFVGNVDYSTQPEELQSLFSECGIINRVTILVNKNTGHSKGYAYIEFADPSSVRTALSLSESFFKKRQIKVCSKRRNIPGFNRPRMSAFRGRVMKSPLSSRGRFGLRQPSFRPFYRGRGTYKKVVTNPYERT
Kind of data set: EMSA; apparent Kd; excess tRNA, 5 mM Mg2+; EMSA/FP: 10 mM Tris-Cl pH 7.5, 5 mM MgCl2, 55 mM KCl, 2 ug tRNA, 1 mM DTT, 0.5 U/ul SUPERase-In, 2.5% glycerol, RT 20 min; ITC: 10 mM HEPES pH 7.5, 100 mM KCl. The conditions noted are these: protein: recombinant; tags: N-terminal GST (purified via GST); vector pSL0220 also encodes C-terminal 6xHis; single strand.

Data set [2] has as its target T2, PyPABP1 (Plasmodium yoelii 17XNL, UniProt V7PUC0 1-841).
T2 sequence: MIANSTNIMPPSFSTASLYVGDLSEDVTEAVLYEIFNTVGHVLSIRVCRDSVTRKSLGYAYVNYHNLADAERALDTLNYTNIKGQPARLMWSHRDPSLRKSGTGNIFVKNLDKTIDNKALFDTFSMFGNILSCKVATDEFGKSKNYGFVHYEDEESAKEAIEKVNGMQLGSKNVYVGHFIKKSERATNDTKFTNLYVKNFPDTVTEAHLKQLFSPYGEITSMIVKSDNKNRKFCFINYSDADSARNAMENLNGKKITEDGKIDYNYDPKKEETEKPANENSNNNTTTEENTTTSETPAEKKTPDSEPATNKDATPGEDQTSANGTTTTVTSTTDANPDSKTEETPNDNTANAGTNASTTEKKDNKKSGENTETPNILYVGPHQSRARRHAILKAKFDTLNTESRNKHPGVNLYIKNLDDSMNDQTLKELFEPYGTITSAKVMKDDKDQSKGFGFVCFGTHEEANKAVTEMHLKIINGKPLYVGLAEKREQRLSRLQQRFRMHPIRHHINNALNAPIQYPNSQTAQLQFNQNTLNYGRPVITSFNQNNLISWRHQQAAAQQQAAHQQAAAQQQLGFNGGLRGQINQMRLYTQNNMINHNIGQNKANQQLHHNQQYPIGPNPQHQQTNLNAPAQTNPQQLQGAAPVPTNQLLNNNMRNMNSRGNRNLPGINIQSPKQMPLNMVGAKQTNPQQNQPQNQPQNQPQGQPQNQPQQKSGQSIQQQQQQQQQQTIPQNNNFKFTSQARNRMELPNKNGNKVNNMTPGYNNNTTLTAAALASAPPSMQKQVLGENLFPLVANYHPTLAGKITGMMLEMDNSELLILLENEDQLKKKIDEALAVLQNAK
The data set is described as above. The note with it: protein: recombinant; tags: N-terminal GST (thrombin-cleavable), C-terminal 6xHis (TEV-cleavable); single strand.

For data set [3], the target named is T2, PyPABP1. Put plainly: ITC; 5 mM Mg2+; second of two protein preparations; EMSA/FP: 10 mM Tris-Cl pH 7.5, 5 mM MgCl2, 55 mM KCl, 2 ug tRNA, 1 mM DTT, 0.5 U/ul SUPERase-In, 2.5% glycerol, RT 20 min; ITC: 10 mM HEPES pH 7.5, 100 mM KCl. The note with it: protein: recombinant; tags: N-terminal GST (thrombin-cleavable), C-terminal 6xHis (TEV-cleavable); single strand.

Data set [4] addresses T2, PyPABP1. Put plainly: ITC; 5 mM Mg2+; first of two protein preparations; EMSA/FP: 10 mM Tris-Cl pH 7.5, 5 mM MgCl2, 55 mM KCl, 2 ug tRNA, 1 mM DTT, 0.5 U/ul SUPERase-In, 2.5% glycerol, RT 20 min; ITC: 10 mM HEPES pH 7.5, 100 mM KCl. The conditions noted are these: protein: recombinant; tags: N-terminal GST (thrombin-cleavable), C-terminal 6xHis (TEV-cleavable); single strand.

The target in data set [5] is T1, PyPABP2. Kind of data set: fluorescence polarization; apparent Kd; excess tRNA, 5 mM Mg2+; EMSA/FP: 10 mM Tris-Cl pH 7.5, 5 mM MgCl2, 55 mM KCl, 2 ug tRNA, 1 mM DTT, 0.5 U/ul SUPERase-In, 2.5% glycerol, RT 20 min; ITC: 10 mM HEPES pH 7.5, 100 mM KCl. The note with it: protein: recombinant; tags: N-terminal GST (purified via GST); vector pSL0220 also encodes C-terminal 6xHis; single strand.

In data set [6] the target is T2, PyPABP1. Described as above. The note with it: protein: recombinant; tags: N-terminal GST (thrombin-cleavable), C-terminal 6xHis (TEV-cleavable); single strand.

Turning to AAAAAAAAAAAAAAAAAAAAAAAAA (ssRNA) [biotin-poly(A) 25-mer], the Kd with PyPABP2 [1] stood at 108 nM; with PyPABP1 [2], 185 nM.
Turning to AAAAAAAAAAAAAAAAAAAAAAAAA (ssRNA) [poly(A) 25-mer], the Kd was 48 nM in the data set with PyPABP1 [3] and 33 nM in the data set with PyPABP1 [4].
On to AAAAAAAAAAAAAAAAAAAAAAAAA (ssRNA) [fluorescein-poly(A) 25-mer], for which the Kd came to 104 nM with PyPABP2 [5] and 8 nM with PyPABP1 [6].
